{
  "source": "the supplement of paper PMC10567573",
  "parents": {"B1": {"name": "PLAGL1 (parent)", "chain": "CKDFLCQFCAQRFGRKDHLTRHTK"}},
  "data": [
    {"variants_of": "B1", "test": "protein stability index of a GFP-peptide fusion (GPS, HEK-293T) (PSI 1-6); higher = more stable", "conditions": "c terminus: a fixed tail appended", "values": [
      {"variant": "CKDFLCQFCAQRFGRKDFLTRHTK", "note": "[H18F]", "protein stability index": 1.49},
      {"variant": "CKDFLCQFCAQRFGRKDGLTRHTK", "note": "[H18G]", "protein stability index": 1.95},
      {"variant": "CKDFLCQFCAQRFGRKDWLTRHTK", "note": "[H18W]", "protein stability index": 1.94},
      {"variant": "CKDFLCQFCAQRFGRKDHETRHTK", "note": "[L19E]", "protein stability index": 1.99},
      {"variant": "CKDFLCQFCAQRFGRKDHHTRHTK", "note": "[L19H]", "protein stability index": 2.16},
      {"variant": "CKDFLCQFCAQRFGRKDHNTRHTK", "note": "[L19N]", "protein stability index": 1.91},
      {"variant": "CKDFLCQFCAQRFGRKDHPTRHTK", "note": "[L19P]", "protein stability index": 2.02},
      {"variant": "CKDFLCQFCAQRFGRKDHMTRHTK", "note": "[L19M]", "protein stability index": 2.4},
      {"variant": "CKDFLCQFCAQRFGRKDHITRHTK", "note": "[L19I]", "protein stability index": 2.32},
      {"variant": "CKDFLCQFCAQRFGRKDHFTRHTK", "note": "[L19F]", "protein stability index": 2.58},
      {"variant": "CKDFLCQFCAQRFGRKDHDTRHTK", "note": "[L19D]", "protein stability index": 3.71},
      {"variant": "CKDFLCQFCAQRFGRKDHSTRHTK", "note": "[L19S]", "protein stability index": 2.13},
      {"variant": "CKDFLCQFCAQRFGRKDHWTRHTK", "note": "[L19W]", "protein stability index": 1.65},
      {"variant": "CKDFLCQFCAQRFGRKDHVTRHTK", "note": "[L19V]", "protein stability index": 1.99},
      {"variant": "CKDFLCQFCAQRFGRKDHKTRHTK", "note": "[L19K]", "protein stability index": 3.13},
      {"variant": "CKDFLCQFCAQRFGRKDHGTRHTK", "note": "[L19G]", "protein stability index": 2.73},
      {"variant": "CKDFLCQFCAQRFGRKDHATRHTK", "note": "[L19A]", "protein stability index": 2.54},
      {"variant": "CKDFLCQFCAQRFGRKDHCTRHTK", "note": "[L19C]", "protein stability index": 2.25},
      {"variant": "CKDFLCQFCAQRFGRKDHQTRHTK", "note": "[L19Q]", "protein stability index": 2.48},
      {"variant": "CKDFLCQFCAQRFGRKDHYTRHTK", "note": "[L19Y]", "protein stability index": 1.9},
      {"variant": "CKDFLCQFCAQRFGRKDHRTRHTK", "note": "[L19R]", "protein stability index": 2.39},
      {"variant": "CKDFLCQFCAQRFGRKDHTTRHTK", "note": "[L19T]", "protein stability index": 3.32},
      {"variant": "CKDFLCQFCAQRFGRDDHLTRHTK", "note": "[K16D]", "protein stability index": 2.35},
      {"variant": "CKDFLCQFCAQRFGRGDHLTRHTK", "note": "[K16G]", "protein stability index": 2.15},
      {"variant": "CKDFLCQFCAQRFGRHDHLTRHTK", "note": "[K16H]", "protein stability index": 2.39},
      {"variant": "CKDFLCQFCAQRFGREDHLTRHTK", "note": "[K16E]", "protein stability index": 1.93},
      {"variant": "CKDFLCQFCAQRFGRSDHLTRHTK", "note": "[K16S]", "protein stability index": 1.95},
      {"variant": "CKDFLCQFCAQRFGRQDHLTRHTK", "note": "[K16Q]", "protein stability index": 2.62},
      {"variant": "CKDFLCQFCAQRFGRNDHLTRHTK", "note": "[K16N]", "protein stability index": 1.92},
      {"variant": "CKDFLCQFCAQRFGRADHLTRHTK", "note": "[K16A]", "protein stability index": 2.67},
      {"variant": "CKDFLCQFCAQRFGRWDHLTRHTK", "note": "[K16W]", "protein stability index": 2.33},
      {"variant": "CKDFLCQFCAQRFGRTDHLTRHTK", "note": "[K16T]", "protein stability index": 2.82},
      {"variant": "CKDFLCQFCAQRFGRRDHLTRHTK", "note": "[K16R]", "protein stability index": 2.44},
      {"variant": "CKDFLCQFCAQRFGRYDHLTRHTK", "note": "[K16Y]", "protein stability index": 1.86},
      {"variant": "CKDFLCQFCAQRFGRPDHLTRHTK", "note": "[K16P]", "protein stability index": 2.25},
      {"variant": "CKDFLCQFCAQRFGRVDHLTRHTK", "note": "[K16V]", "protein stability index": 2.05},
      {"variant": "CKDFLCQFCAQRFGRLDHLTRHTK", "note": "[K16L]", "protein stability index": 2.49},
      {"variant": "CKDFLCQFCAQRFGRFDHLTRHTK", "note": "[K16F]", "protein stability index": 2.17},
      {"variant": "CKDFLCQFCAQRFGRMDHLTRHTK", "note": "[K16M]", "protein stability index": 1.68},
      {"variant": "CKDFLCQFCAQRFGRCDHLTRHTK", "note": "[K16C]", "protein stability index": 2.53},
      {"variant": "CKDFLCQFCAQRFGRIDHLTRHTK", "note": "[K16I]", "protein stability index": 2.37},
      {"variant": "CKDFLCQFCAQRFGRKDHLTRITK", "note": "[H22I]", "protein stability index": 1.76},
      {"variant": "CKDFLCQFCAQRFGRKDHLTRCTK", "note": "[H22C]", "protein stability index": 2.4},
      {"variant": "CKDFLCQFCAQRFGRKDHLTRDTK", "note": "[H22D]", "protein stability index": 2.09},
      {"variant": "CKDFLCQFCAQRFGRKDHLTRGTK", "note": "[H22G]", "protein stability index": 2.56},
      {"variant": "CKDFLCQFCAQRFGRKDHLTRQTK", "note": "[H22Q]", "protein stability index": 1.77},
      {"variant": "CKDFLCQFCAQRFGRKDHLTRLTK", "note": "[H22L]", "protein stability index": 1.85},
      {"variant": "CKDFLCQFCAQRFGRKDHLTRETK", "note": "[H22E]", "protein stability index": 1.8},
      {"variant": "CKDFLCQFCAQRFGRKDHLTRPTK", "note": "[H22P]", "protein stability index": 2.3},
      {"variant": "CKDFLCQFCAQRFGRKDHLTRKTK", "note": "[H22K]", "protein stability index": 1.68},
      {"variant": "CKDFLCQFCAQRFGRKDHLTRRTK", "note": "[H22R]", "protein stability index": 2.15},
      {"variant": "CKDFLCQFCAQRFGRKDHLTRMTK", "note": "[H22M]", "protein stability index": 2.12},
      {"variant": "CKDFLCQFCAQRFGRKDHLTRNTK", "note": "[H22N]", "protein stability index": 1.48},
      {"variant": "CKDFLCQFCAQRFGRKDHLTRFTK", "note": "[H22F]", "protein stability index": 1.65},
      {"variant": "CKDFLCQFCAQRFGRKDHLTRATK", "note": "[H22A]", "protein stability index": 2.03},
      {"variant": "CKDFLCQFCAQRFGRKDHLTRSTK", "note": "[H22S]", "protein stability index": 2.04},
      {"variant": "CKDFLCQFCAQRFGFKDHLTRHTK", "note": "[R15F]", "protein stability index": 1.79},
      {"variant": "CKDFLCQFCAQRFGLKDHLTRHTK", "note": "[R15L]", "protein stability index": 2.06},
      {"variant": "CKDFLCQFCAQRFGMKDHLTRHTK", "note": "[R15M]", "protein stability index": 1.73},
      {"variant": "CKDFLCQFCAQRFGVKDHLTRHTK", "note": "[R15V]", "protein stability index": 2.3},
      {"variant": "CKDFLCQFCAQRFGQKDHLTRHTK", "note": "[R15Q]", "protein stability index": 1.74},
      {"variant": "CKDFLCQFCAQRFGKKDHLTRHTK", "note": "[R15K]", "protein stability index": 2.52},
      {"variant": "CKDFLCQFCAQRFGPKDHLTRHTK", "note": "[R15P]", "protein stability index": 1.66},
      {"variant": "CKDFLCQFCAQRFGIKDHLTRHTK", "note": "[R15I]", "protein stability index": 1.91},
      {"variant": "CKDFLCQFCAQRFGHKDHLTRHTK", "note": "[R15H]", "protein stability index": 1.85},
      {"variant": "CKDFLCQFCAQRFGWKDHLTRHTK", "note": "[R15W]", "protein stability index": 1.61},
      {"variant": "CKDFLCQFCAQRFGAKDHLTRHTK", "note": "[R15A]", "protein stability index": 1.82},
      {"variant": "CKDFLCQFCAQRFGDKDHLTRHTK", "note": "[R15D]", "protein stability index": 2.24},
      {"variant": "CKDFLCQFCAQRFGEKDHLTRHTK", "note": "[R15E]", "protein stability index": 2.52},
      {"variant": "CKDFLCQFCAQRFGSKDHLTRHTK", "note": "[R15S]", "protein stability index": 1.73},
      {"variant": "CKDFLCQFCAQRFGGKDHLTRHTK", "note": "[R15G]", "protein stability index": 2.36},
      {"variant": "CKDFLCQFCAQRFGCKDHLTRHTK", "note": "[R15C]", "protein stability index": 1.82},
      {"variant": "CKDFLCQFCAQRFGNKDHLTRHTK", "note": "[R15N]", "protein stability index": 1.83},
      {"variant": "CKDFLCQFCAQRFGYKDHLTRHTK", "note": "[R15Y]", "protein stability index": 2.38},
      {"variant": "CKDFLCQFCAQRFGTKDHLTRHTK", "note": "[R15T]", "protein stability index": 1.93},
      {"variant": "CKDFLCQFCAQRFGRKDHLKRHTK", "note": "[T20K]", "protein stability index": 2.35},
      {"variant": "CKDFLCQFCAQRFGRKDHLIRHTK", "note": "[T20I]", "protein stability index": 1.58},
      {"variant": "CKDFLCQFCAQRFGRKDHLCRHTK", "note": "[T20C]", "protein stability index": 3.02},
      {"variant": "CKDFLCQFCAQRFGRKDHLFRHTK", "note": "[T20F]", "protein stability index": 1.83},
      {"variant": "CKDFLCQFCAQRFGRKDHLSRHTK", "note": "[T20S]", "protein stability index": 2.17},
      {"variant": "CKDFLCQFCAQRFGRKDHLWRHTK", "note": "[T20W]", "protein stability index": 1.47},
      {"variant": "CKDFLCQFCAQRFGRKDHLRRHTK", "note": "[T20R]", "protein stability index": 1.93},
      {"variant": "CKDFLCQFCAQRFGRKDHLHRHTK", "note": "[T20H]", "protein stability index": 1.96},
      {"variant": "CKDFLCQFCAQRFGRKDHLVRHTK", "note": "[T20V]", "protein stability index": 2.28},
      {"variant": "CKDFLCQFCAQRFGRKDHLQRHTK", "note": "[T20Q]", "protein stability index": 1.75},
      {"variant": "CKDFLCQFCAQRFGRKDHLLRHTK", "note": "[T20L]", "protein stability index": 2.22},
      {"variant": "CKDFLCQFCAQRFGRKDHLERHTK", "note": "[T20E]", "protein stability index": 2.29},
      {"variant": "CKDFLCQFCAQRFGRKDHLYRHTK", "note": "[T20Y]", "protein stability index": 1.82},
      {"variant": "CKDFLCQFCAQRFGRKDHLGRHTK", "note": "[T20G]", "protein stability index": 2.17},
      {"variant": "CKDFLCQFCAQRFGRKDHLARHTK", "note": "[T20A]", "protein stability index": 2.25},
      {"variant": "CKDFLCQFCAQRFGRKDHLDRHTK", "note": "[T20D]", "protein stability index": 1.72},
      {"variant": "CKDFLCQFCAQRFGRKDHLMRHTK", "note": "[T20M]", "protein stability index": 2.66},
      {"variant": "CKDFLCQFCAQRFGRKDHLNRHTK", "note": "[T20N]", "protein stability index": 2.01},
      {"variant": "CKDFLCQFCAQRFGRKDHLPRHTK", "note": "[T20P]", "protein stability index": 1.82}
    ]}
  ]
}
